Data: US12233115B2, “Long-acting parathyroid hormone” (Extend Biosciences, Inc., priority 2022, dated 2025)
Marks after values point to notes of the source that are not given here.

Key:
[1] = target: T1, vitamin D binding protein (DBP) (Homo sapiens, UniProt P02774); test: Bio-layer interferometry binding of DBP to immobilized biotinylated conjugate; settings: BLI steady state fit, DBP 0-75 μM; read-out: KD (binding equilibrium constant)
T1 construct: purchased Athens Research and Technology 16-16-070307
T1 sequence (P02774 17-474): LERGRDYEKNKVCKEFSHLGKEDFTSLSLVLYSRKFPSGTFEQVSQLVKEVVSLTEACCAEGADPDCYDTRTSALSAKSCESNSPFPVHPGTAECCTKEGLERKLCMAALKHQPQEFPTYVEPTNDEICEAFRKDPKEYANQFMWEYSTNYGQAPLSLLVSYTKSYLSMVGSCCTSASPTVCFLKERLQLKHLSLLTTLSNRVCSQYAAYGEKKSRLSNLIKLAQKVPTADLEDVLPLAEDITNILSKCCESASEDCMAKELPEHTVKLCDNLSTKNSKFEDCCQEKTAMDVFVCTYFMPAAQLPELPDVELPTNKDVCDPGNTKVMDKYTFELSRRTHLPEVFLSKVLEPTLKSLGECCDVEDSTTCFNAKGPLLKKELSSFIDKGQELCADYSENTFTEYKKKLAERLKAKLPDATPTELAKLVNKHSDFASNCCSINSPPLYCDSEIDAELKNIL
Protocol: EXT607 and EXT608 were biotinylated using the EZ-Link Sulfo-NHS Biotin No-Weigh kit (Thermo Fisher Scientific, Waltham, MA, Catalog No. PIA39256). One mmol of biotin was reacted with 1 mmol of conjugate for 1 hour at room temperature. Unbound biotin was separated from biotinylated conjugate with a PD-10 desalting column (GE Lifesciences/Cytiva, Marlborough, MA, Catalog No. 17085101). The biotinylation ratio was quantitated using the Pierce Biotin Quantitation Kit (Thermo Fisher Scientific, Waltham, MA, Catalog No. PI28005). DBP was purchased from Athens Research and Technology (Athens, GA, Catalog No. 16-16-070307).
Affinity measurements were collected on the Octet Red96 using prehydrated Dip and Read Streptavidin (SA) Biosensors (ForteBio, Fremont, CA, Catalog No. 18-5021). Reagents were diluted into phosphate buffered saline (PBS) with 0.02% Tween 20 in a black 96-well plate. Biotinylated EXT607 or EXT608 were prepared at a biotin concentration of 50 μg/mL and loaded onto the SA tips for 2 minutes. A buffer-only negative loading control was used to measure non-specific binding of DBP to the SA biosensors. A titration of DBP ranging from 0 to 75 μM was prepared. DBP was associated to the loaded tips for 5 minutes and dissociated with buffer solution for 10 minutes.

[2] = Single dose pharmacokinetics of EXT608 in healthy humans; type: in vivo; settings: human
Protocol: EXT608 vastly improves the serum half-life in humans in a dose-dependent manner. Sterile EXT608 formulations were prepared at a concentration of 0.4 mg/ml in 10 mM sodium acetate buffer pH=5.5, 4.5% mannitol, and 0.25% Polysorbate 80 and filled into sterile vials. Healthy human participants were administered EXT608 by subcutaneous injection in the abdomen at doses of 0, 36, 108, 216, or 324 micrograms (n=3).
Pharmacokinetics: 4 ml Blood samples were collected at −24, −1, 0.5, 1, 2, 4, 8, 12, 18, 24, 36, 48, and 72 hours relative to dosing as well as on Days 5, 7, 14, 21, and 28 after dosing. They were processed to K2EDTA plasma. […] Pharmacokinetic parameters were calculated for each individual using Kinetica software (ThermoFisher Scientific, Waltham, MA), and the parameter means and standard deviations are given in Table 12. For the lower doses (36, 108, and 216 μg), an accurate elimination half-life (t1/2) could not be determined because of limited timepoints with EXT608 concentrations above the lower limit of quantitation.

[3] = test system: healthy human participants; test: Single dose pharmacodynamics of EXT608 in healthy humans (serum calcium, endogenous PTH(1-84), urinary calcium); type: in vivo; settings: any dose level tested, about 36 hours post-administration (data not shown)
Protocol: EXT608 vastly improves the serum half-life in humans in a dose-dependent manner. Sterile EXT608 formulations were prepared at a concentration of 0.4 mg/ml in 10 mM sodium acetate buffer pH=5.5, 4.5% mannitol, and 0.25% Polysorbate 80 and filled into sterile vials. Healthy human participants were administered EXT608 by subcutaneous injection in the abdomen at doses of 0, 36, 108, 216, or 324 micrograms (n=3). Pharmacodynamics: Blood samples were collected at −24, −1, 0.5, 1, 2, 4, 8, 12, 18, 24, 36, 48, and 72 hours relative to dosing as well as on Days 5, 7, 14, 21, and 28 after dosing. They were processed to serum and submitted to Quest Diagnostics for standard blood chemistry analysis including total calcium and albumin. EXT608 raised serum calcium levels in a dose-dependent fashion and was able to maintain elevated calcium levels for 24 h. Blood samples (1.5 ml) were collected at −1, 4, 24, 48, and 72 hours relative to dosing as well as on Days 5, 7, 14, 21, and 28 after dosing. They were processed to EDTA plasma and submitted to Quest Diagnostics for intact PTH(1-84) analysis (Test Code #35202). In healthy humans, under conditions of elevated serum calcium, the body will attempt to restore normal calcium levels by a variety of mechanisms including suppression of endogenous PTH(1-84). […]

[4] = in vivo, 36 ug, single 36 μg SC
[5] = in vivo, 108 ug, single 108 μg SC
[6] = in vivo, 216 ug, single 216 μg SC
[7] = in vivo, 324 ug, single 324 μg SC

Kd [1]: 5.2 µM
SMILES: C=C1CC[C@H](OCCCNC(=O)CCOCCOCCOCCOCCOCCOCCOCCOCCOCCOCCOCCOCCOCCOCCOCCOCCOCCOCCOCCOCCOCCOCCOCCOCCOCCOCCOCCOCCOCCOCCOCCOCCOCCOCCOCCOCCNC(=O)CCN2C(=O)CC(SC[C@H](NC(=O)[C@H](Cc3ccccc3)NC(=O)[C@H](CC(N)=O)NC(=O)[C@H](Cc3c[nH]cn3)NC(=O)[C@@H](NC(=O)[C@H](CC(=O)O)NC(=O)[C@H](CCC(N)=O)NC(=O)[C@H](CC(C)C)NC(=O)[C@H](CCCCN)NC(=O)[C@H](CCCCN)NC(=O)[C@H](CCCNC(=N)N)NC(=O)[C@H](CC(C)C)NC(=O)[C@H](Cc3c[nH]c4ccccc34)NC(=O)[C@H](CCC(=O)O)NC(=O)[C@@H](NC(=O)[C@H](CCCNC(=N)N)NC(=O)[C@H](CCC(=O)O)NC(=O)[C@H](CCSC)NC(=O)[C@H](CO)NC(=O)[C@H](CC(N)=O)NC(=O)[C@H](CC(C)C)NC(=O)[C@H](Cc3c[nH]cn3)NC(=O)[C@H](CCCCN)NC(=O)CNC(=O)[C@H](CC(C)C)NC(=O)[C@H](CC(N)=O)NC(=O)[C@H](Cc3c[nH]cn3)NC(=O)[C@H](CCSC)NC(=O)[C@H](CC(C)C)NC(=O)[C@H](CCC(N)=O)NC(=O)[C@@H](NC(=O)[C@H](CCC(=O)O)NC(=O)[C@H](CO)NC(=O)[C@@H](NC(=O)[C@@H](N)CO)C(C)C)[C@@H](C)CC)C(C)C)C(C)C)C(N)=O)C2=O)C/C1=C/C=C1\CCC[C@]2(C)[C@@H]([C@H](C)CCCC(C)(C)O)CC[C@@H]12 (some centres unmarked) [EXT608]
tlast ([2]; single 36 μg SC): 24 h
tlast ([2]; single 108 μg SC, 48 h (n = 1) or 72 h (n = 2)): 48/72^a
tlast ([2]; single 216 μg SC): 48/72/120
tlast ([2]; single 324 μg SC): 168 h
AUC(0-t) [2, 4]: 5.9 ± 2.7 ng·h/mL
Cmax [2, 4]: 0.49 ± 0.27 ng/mL
Tmax [2, 4]: 3.3 ± 1.2 h
AUC(0-t) [2, 5]: 29.2 ± 8.4 ng·h/mL
Cmax [2, 5]: 1.2 ± 0.3 ng/mL
Tmax [2, 5]: 5.3 ± 2.3 h
AUC(0-t) [2, 6]: 41.7 ± 17.4 ng·h/mL
Cmax [2, 6]: 1.3 ± 0.5 ng/mL
Tmax [2, 6]: 4 h
AUC(0-inf) [2, 7]: 151 ± 16 ng·h/mL
AUC(0-t) [2, 7]: 118 ± 11 ng·h/mL
Cmax [2, 7]: 5 ± 2 ng/mL
MRT [2, 7]: 105 ± 18 h
Tmax [2, 7]: 2.7 ± 1.2 h
half-life [2, 7]: 90 ± 13 h
Vd/F ([2]; in vivo, 324 ug, single 324 μg SC, read-out: VZ/F): 280 ± 42 L
CL/F ([2]; plasma, 324 ug, single 324 μg SC): 36.7 mL/min
effect on urinary calcium [3]: did not cause a significant increase
